{"source": "patent US20240002533A1", "about": "(Merck Sharp & Dohme, published 2024)", "binders": {"B1": {"name": "Antibody mAb1 (chimeric: human VH1 and VL on a mouse IgG2a/kappa constant domain backbone) (antibody)", "heavy": "QVQLVQSGAEVKKPGASVKVSCKASGYTFTNYGISWVRQAPGQGLEWMGWISAYNGNTNYAQKLQGRVTMTTDTSTSTAYMELRSLRSDDTAVYYCAREGAYGYRSPYHNWFDPWGQGTLVTVSSAKTTAPSVYPLAPVCGDTTGSSVTLGCLVKGYFPEPVTLTWNSGSLSSGVHTFPAVLQSDLYTLSSSVTVTSSTWPSQSITCNVAHPASSTKVDKKIEPRGPTIKPCPPCKCPAPNLLGGPSVFIFPPKIKDVLMISLSPIVTCVVVDVSEDDPDVQISWFVNNVEVHTAQTQTHREDYNSTLRVVSALPIQHQDWMSGKEFKCKVNNKDLPAPIERTISKPKGSVRAPQVYVLPPPEEEMTKKQVTLTCMVTDFMPEDIYVEWTNNGKTELNYKNTEPVLDSDGSYFMYSKLRVEKKNWVERNSYSCSVVHEGLHNHHTTKSFSRTPGK", "light": "EIVMTQSPATLSLSPGERATLSCRASQSVSSYLAWYQQKPGQAPRLLIYDASNRATGIPARFSGSGSGTDFTLTISSLEPEDFAVYYCQQHSLLPRTFGGGTKVEIKRTVAAPTVSIFPPSSEQLTSGGASVVCFLNNFYPKDINVKWKIDGSERQNGVLNSWTDQDSKDSTYSMSSTLTLTKDEYERHNSYTCEATHKTSTSPIVKSFNRNEC"}, "B2": {"name": "Antibody mAb2 (chimeric: human VH1 and VL on a mouse IgG1 D265A/kappa constant domain backbone) (antibody)", "heavy": "QVQLVQSGAEVKKPGASVKVSCKASGYTFTNYGISWVRQAPGQGLEWMGWISAYNGNTNYAQKLQGRVTMTTDTSTSTAYMELRSLRSDDTAVYYCAREGAYGYRSPYHNWFDPWGQGTLVTVSSAKTTPPSVYPLAPGSAAQTNSMVTLGCLVKGYFPEPVTVTWNSGSLSSGVHTFPAVLQSDLYTLSSSVTVPSSTWPSETVTCNVAHPASSTKVDKKIVPRDCGCKPCICTVPEVSSVFIFPPKPKDVLTITLTPKVTCVVVAISKDDPEVQFSWFVDDVEVHTAQTQPREEQFNSTFRSVSELPIMHQDWLNGKEFKCRVNSAAFPAPIEKTISKTKGRPKAPQVYTIPPPKEQMAKDKVSLTCMITDFFPEDITVEWQWNGQPAENYKNTQPIMDTDGSYFVYSKLNVQKSNWEAGNTFTCSVLHEGLHNHHTEKSLSHSPGK", "light": "B1 light"}}, "target": "T1, human arginase 1, trimeric (full-length untagged hArg1 expressed in E. coli) (human, UniProt P05089 1-322)", "T1 sequence": "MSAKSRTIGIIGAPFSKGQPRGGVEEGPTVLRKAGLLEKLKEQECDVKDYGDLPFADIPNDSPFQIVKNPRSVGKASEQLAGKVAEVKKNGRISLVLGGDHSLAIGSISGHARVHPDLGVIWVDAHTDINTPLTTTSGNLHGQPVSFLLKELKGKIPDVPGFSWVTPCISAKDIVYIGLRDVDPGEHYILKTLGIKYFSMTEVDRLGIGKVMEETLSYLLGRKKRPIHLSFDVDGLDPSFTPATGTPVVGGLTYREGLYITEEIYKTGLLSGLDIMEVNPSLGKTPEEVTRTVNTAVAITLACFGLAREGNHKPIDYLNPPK", "assay": "cell-based or functional assay", "data": [{"binder": "B1", "values": [{"measurement": "IC50 (% inhibition of hArg1 activity, arginine to ornithine by LC-MS)", "value": 3.3, "unit": "nM"}]}, {"binder": "B2", "values": [{"measurement": "IC50 (% inhibition of hArg1 activity, arginine to ornithine by LC-MS)", "value": 5.3, "unit": "nM"}]}]}
